# T1: exosomes presenting TMEM-180 from DLD-1 cell line (Homo sapiens, UniProt Q14CX5)
# T1 construct: endogenous in cells; host or cells: DLD-1 colon cancer cell line (parent / wild type); culture supernatant exosomes in A20
# T1 sequence (Q14CX5 1-517): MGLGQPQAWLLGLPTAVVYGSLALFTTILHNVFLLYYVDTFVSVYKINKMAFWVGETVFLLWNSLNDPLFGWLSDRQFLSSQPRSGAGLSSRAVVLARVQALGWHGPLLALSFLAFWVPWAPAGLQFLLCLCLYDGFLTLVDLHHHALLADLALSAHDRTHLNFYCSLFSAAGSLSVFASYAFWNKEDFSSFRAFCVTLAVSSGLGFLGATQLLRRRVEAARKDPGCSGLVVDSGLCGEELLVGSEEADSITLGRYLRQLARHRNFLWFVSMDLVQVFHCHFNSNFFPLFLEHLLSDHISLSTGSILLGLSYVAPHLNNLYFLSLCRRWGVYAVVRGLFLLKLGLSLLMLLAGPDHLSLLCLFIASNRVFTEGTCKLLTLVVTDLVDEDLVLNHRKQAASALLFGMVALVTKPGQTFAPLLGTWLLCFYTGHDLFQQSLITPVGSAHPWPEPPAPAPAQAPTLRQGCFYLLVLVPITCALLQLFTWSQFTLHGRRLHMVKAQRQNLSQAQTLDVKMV
# B1: clone 669: rat IgM anti-TMEM-180 monoclonal antibody; variable regions SEQ ID NOs: 78 and 79 (antibody, V domains shown)
# VH: MGWICIIFLVATATGVHSQVKLLQSGAALVKPGASVKMSCKASGYTFTDYWVSWVKQSHGKSLEWIGEIYPNSGATNFNENFKGKATLTVDKSTSTAYMELSRLTSEDSAIYYCTRDGTMGIAYYFDYWGQGVMVTVSS
# VL: MMAAVQLLGLLLLWVPAMRCDIQMTQSPSFLSASVGDRVTINCKASQNINRYLNWYQQKLGEAPKLLIYNANSLQTGIPSRFSGSGSGTDFTLTISSLQPEDVATYFCLQHNSWPYTFGAGTKLELK
# B2: 1361-7 clone: variant having an amino acid substitution S82A in the 1361 antibody (antibody, V domains shown)
# VH: EVQLVESGGGLVQPGRSLKLSCVASGFTFNNYWMTWIRQAPGKGLEWVASITNTGGSTYYPDAVKGRFTISRDYAKSTLYLQMNSLRSEDTATYYCTRAGYSSYPDYFDYWGQGVMLTVSS
# VL: NIQMTQSPSLLSASVGDRVTLSCKAGQNIYNYLAWYQQKLGEAPKLLIYNANSLQTGIPSRFSGSGSGTDFTLTISSLQPEDVATYFCQQYSSGWTFGGGTKLELK
# B3: clone 1361: rat IgG anti-TMEM-180 monoclonal antibody; variable regions SEQ ID NOs: 70 and 71 (antibody, V domains shown)
# VH: MDIRLSLVFLVLFIKGVQCEVQLVESGGGLVQPGRSLKLSCVASGFTFNNYWMTWIRQAPGKGLEWVASITNTGGSTYYPDSVKGRFTISRDYAKSTLYLQMNSLRSEDTATYYCTRAGYSSYPDYFDYWGQGVMLTVSS
# VL: MMAPVQLLGLLLLWLPAMRCNIQMTQSPSLLSASVGDRVTLSCKAGQNIYNYLAWYQQKLGEAPKLLIYNANSLQTGIPSRFSGSGSGTDFTLTISSLQPEDVATYFCQQYSSGWTFGGGTKLELK
# Tests used:
# [1] = test system: cell lines derived from cancers (ATCC and JCRB); assay: Reactivity of antibodies to cancer-derived cell lines by FACS (Table 23); assay type: binding
# [2] = test system: cell lines derived from cancers (ATCC and JCRB); assay: as above; assay type: binding; remark: listed apart in the source
# Procedure: Cancer cells targeted for measurement were cultured in medium and then added to a V-bottom 96-well plate (Corning Incorporated) to a concentration of 1×10^5 cells/well. The plate was centrifuged for 3 minutes at 440×g and 4° C. followed by removing the supernatant, adding antibody-producing hybridoma culture supernatant or antibody solution to the cell pellet at 50 μL/well and suspending therein. After allowing to react for 45 minutes on ice, the plate was washed three times with a mixture of 0.1% BSA, 2 mM EDTA and PBS at 200 μL/well. The supernatant was removed and secondary antibody was added to the cell pellet at 50 μL/well followed by suspending the cells therein. ALEXAFLUOR 647@ (fluorescent compound) goat anti-rat IgG (H-L) (Life Technologies Corporation) was used for the secondary antibody after diluting 400-fold with a mixture of 0.1% BSA, 2 mM EDTA and PBS. After allowing to react for 45 minutes on ice, the plate was washed three times with a mixture of 0.1% BSA, 2 mM EDTA and PBS at 200 μL/well. After removing the supernatant, 50 ng/mL of propidium iodide, 0.1% BSA, 2 mM EDTA and PBS were added to the cell pellet at 250 µL/well followed by suspending therein. The cells stained in this manner were measured using a flow cytometer such as the Guava easyCyte 8HT (Merck Millipore Corporation) followed by analysis of the resulting data using FlowJO (Tomy Digital Biology Co., Ltd.). FACS analysis was carried out using colon cancer, brain tumor and hematologic cancer.
# Cancer-detection rates were tested using monoclonal antibodies (the 669 antibody, 1052 antibody, 1105 antibody, and 1361 antibody).
# In this Example, the reactivity of the antibodies to the cell lines derived from cancers which were obtained from ATCC and JCRB was analyzed by FACS.
# [3] = molecular target: T1, exosomes presenting TMEM-180 from DLD-1 cell line; assay: Detection of TMEM-180 exosomes in culture supernatant (immobilized anti-TMEM-180 antibody, anti-CD9 detection); assay type: binding; conditions: immobilized antibody 5 μg/mL; detection with anti-CD9 antibody; FIG. 18
# Source text: Thus, the inventors constructed a system for detecting exosomes in the culture supernatant. In this system, an anti-TMEM-180 antibody was immobilized on the surface of the plate, and exosomes containing TMEM-180 which were bound to the immobilized antibody were detected with an anti-CD9 antibody which CD9 is an exosome maker. The DLD-1 cell line (also referred to as “wild type DLD-1 cell line”) was used as cells. The TMEM-180 knockdown DLD-1 cell line and K562 cell line were used as negative controls.
# Specifically, an anti-TMEM-180 antibody was diluted with phosphate buffer such that the concentration will be 5 μg/mL, and then added to a 96 well plate (Maxisorp #442404, Thermo Fisher co., Ltd.) at 50 μL/well. The immobilization reaction was performed by incubation for 2 hours at room temperature or for overnight at 4° C. The plate after the immobilization was washed three times with 300 μL/well of a plate washing solution. The plate was blocked with 200 μL/well of a blocking agent (1% BSA/TBS-T), and allowed to stand for 1 hour at room temperature or for overnight at 4° C. […] Then, the optical density at 450 nm was measured with a plate reader.
# [4] = test system: Wildtype DLD-1 cells; assay: Internalization of the antibody; assay type: cell-based, human; conditions: 488-labelled antibody; 37° C.; 1, 3 or 6 hours; FIG. 25
# Procedure: Wildtype DLD-1 cells were plated on a 96-well plate at 5,000 cells/well. The plate was incubated at 37° C. for 18 hours. After washing, a 488-labelled 669 antibody was added to the wells at 2 μL/well and was incubated at 37° C. for certain hours (1 hour, 3 hours, or 6 hours). After the wells were washed three times, a rabbit anti 488 antibody was added at 2 μL/well to stand still at 4° C. for 30 minutes to quench the fluorescence derived from the antibodies binding to the cell surface. After the wells were washed three times, 4% PFA was added at 100 μL/well to stand still at room temperature for 10 minutes. After the wells were washed three times, DAPI (1/500 dilution) was added to the wells at 100 μL/well to stand still at room temperature for 5 minutes. After the wells were washed three times, the wells were subjected to photographing or Array Scan analysis.
# [5] = test system: normal stroma; assay: Reactivity to normal stroma; assay type: binding; conditions: compared with the 1361 antibody
# [6] = test system: normal tissues (skin, brain, small intestine, liver, heart, lung, kidney); assay: Immune histochemistry of normal human tissues; assay type: binding
# Procedure: The paraffin sections were prepared from the tissue specimens in the same way as shown in Example 6 according to a routine procedure. The prepared sections were subjected to reactions with 1 μg/mL of one of the above antibodies. An HRP-labelled anti rat antibody was used as a secondary antibody, which emitted light with DAB. The observation was performed after hematoxylin staining.
molecule,measurement,setting,value
B1,"Detection Sensitivity of Cancers, P/N",[1]; Cancer Type: Pancreas,(3/9)
same,"Detection Sensitivity of Cancers, Percentage (%)",[1]; Cancer Type: Pancreas,33%
same,"Detection Sensitivity of Cancers, P/N",[2]; Cancer Type: Colon,(3/10)
same,"Detection Sensitivity of Cancers, Percentage (%)",[2]; Cancer Type: Colon,30%
same,detection of exosomes presenting TMEM-180 in DLD-1 culture supernatant,[3],successfully detected
same,internalization into cells,[4],concentrated at a high concentration in the cells
B2,reactivity to normal stroma,[5],almost the same as that of the 1361 antibody
B3,"staining of normal tissues from skin, brain, small intestine, liver, heart, lung and kidney","[6]; 1 μg/mL, paraffin sections",negative
same,reactivity to normal skin tissues,[6]; FIG. 13,low reactivity
same,"Detection Sensitivity of Cancers, P/N",[1]; Cancer Type: Bladder,(3/4)
same,"Detection Sensitivity of Cancers, Percentage (%)",[1]; Cancer Type: Bladder,75%
same,"Detection Sensitivity of Cancers, Percentage (%)",[1]; Cancer Type: Brain,100%
same,"Detection Sensitivity of Cancers, P/N",[1]; Cancer Type: Brest,(2/6)
same,"Detection Sensitivity of Cancers, Percentage (%)",[1]; Cancer Type: Brest,33%
same,"Detection Sensitivity of Cancers, P/N",[1]; Cancer Type: Gastric,(5/8)
same,"Detection Sensitivity of Cancers, Percentage (%)",[1]; Cancer Type: Gastric,63%
same,"Detection Sensitivity of Cancers, P/N",[1]; Cancer Type: Kidney,(3/3)
same,"Detection Sensitivity of Cancers, Percentage (%)",[1]; Cancer Type: Kidney,100%
same,"Detection Sensitivity of Cancers, P/N",[1]; Cancer Type: Pancreas,(9/9)
same,"Detection Sensitivity of Cancers, Percentage (%)",[1]; Cancer Type: Pancreas,100%
same,"Detection Sensitivity of Cancers, P/N",[1]; Cancer Type: Prostate,(2/3)
same,"Detection Sensitivity of Cancers, Percentage (%)",[1]; Cancer Type: Prostate,67%
same,"Detection Sensitivity of Cancers, P/N",[2]; Cancer Type: Brain,(7/7)
same,"Detection Sensitivity of Cancers, P/N",[2]; Cancer Type: Colon,(7/10)
same,"Detection Sensitivity of Cancers, Percentage (%)",[2]; Cancer Type: Colon,70%
same,"recognition of cancers, summary of Table 23","[2]; comparison of 1361, 669, 1052, 1105",highest sensitivity
same,detection of exosomes presenting TMEM-180 in DLD-1 culture supernatant,[3],successfully detected

# Source: patent publication US11633499B2, “Anti-TMEM-180 antibody, anticancer drug and cancer testing method” (NATIONAL CANCER CENTER JAPAN, priority 2016, dated 2023)
